Laboratory results taken from patent US5364782A, “Mutant microbial α-amylases with increased thermal, acid and/or alkaline stability” (Gist-Brocades N.V., priority 1989, dated 1994).
Substitutions are numbered along the chain they refer to. Names and notes keep the numbering of the source.

What was measured:
[1] = substrate: O=[N+]([O-])c1ccc(OC2O[C@H](CO)[C@@H](O[C@H]3O[C@H](CO)[C@@H](O[C@H]4O[C@H](CO)[C@@H](O[C@H]5O[C@H](CO)[C@@H](O[C@H]6O[C@H](CO)[C@@H](O)[C@H](O)[C@H]6O)[C@H](O)[C@H]5O)[C@H](O)[C@H]4O)[C@H](O)[C@H]3O)[C@H](O)[C@H]2O)cc1; assay: Enzymatic activity with 4NP-DP5 as substrate, Michaelis-Menten kinetics (WT); assay type: biochemical, Bacillus licheniformis; details: other: substrate 4NP-DP5 0-1 mM, 35° C., 50 mM MOPS, 50 mM NaCl, 2 mM CaCl2, pH 7.15, WT α-amylase
Description: (§1) The enzymatic activity of B. licheniformis α-amylase WT and mutants was measured using 4-nitrophenyl-maltopentaoside (4NP-DP5) as a substrate, 4 nitrophenol and maltopentaose are formed, this reaction can be followed by measuring the change in OD 405 The assay was performed at 35° C. in 50 mM MOPS, 50 mM NaCl, 2 mM CaCl2 (PH 7.15) and 0-1 mM 4NP-DP5.
(§2) Initial rates were measured and E-nitrophenol was taken as 10,000 l/M/cm.

[2] = substrate: O=[N+]([O-])c1ccc(OC2O[C@H](CO)[C@@H](O[C@H]3O[C@H](CO)[C@@H](O[C@H]4O[C@H](CO)[C@@H](O[C@H]5O[C@H](CO)[C@@H](O[C@H]6O[C@H](CO)[C@@H](O)[C@H](O)[C@H]6O)[C@H](O)[C@H]5O)[C@H](O)[C@H]4O)[C@H](O)[C@H]3O)[C@H](O)[C@H]2O)cc1; assay: Enzymatic activity with 4NP-DP5 as substrate, Michaelis-Menten kinetics (mutant 2D5); assay type: biochemical, Bacillus licheniformis; details: other: substrate 4NP-DP5 0-1 mM, 35° C., 50 mM MOPS, 50 mM NaCl, 2 mM CaCl2, pH 7.15, 2D5 α-amylase
Description: 2D5 contained the D7 mutation and in addition threonine 149 was replaced by isoleucine (2D5=H133Y, T149I).
as §1, §2

B1: Bacillus licheniformis α-amylase, WT (wild type, B. licheniformis T5; SEQ ID NO: 3) (Bacillus licheniformis) (protein)
chain: ANLNGTLMQYFEWYMPNDGQHWKRLQNDSAYLAEHGITAVWIPPAYKGTSQADVGYGAYDLYDLGEFHQKGTVRTKYGTKGELQSAIKSLHSRDINVYGDVVINHKGGADATEDVTAVEVDPADRNRVISGEHRIKAWTHFHFPGRGSTYSDFKWHWYHFDGTDWDESRKLNRIYKFQGKAWDWEVSNENGNYDYLMYADIDYDHPDVAAEIKRWGTWYANELQLDGFRLDAVKHIKFSFLRDWVNHVREKTGKEMFTVAEYWQNDLGALENYLNKTNFNHSVFDVPLHYQFHAASTQGGGYDMRKLLNSTVVSKHPLKAVTFVDNHDTQPGQSLESTVQTWFKPLAYAFILTRESGYPQVFYGDMYGTKGDSQREIPALKHKIEPILKARKQYAYGAQHDYFDHHDIVGWTREGDSSVANSGLAALITDGPGGAKRMYVGRQNAGETWHDITGNRSEPVVINSEGWGEFHVNGGSVSIYVQR
notes: made in house; host or cells: E. coli WK6
- Km [1]: 112 µM
- Vmax [1]: 66.7 ± 0.9 µmol/min/mg

B2: Bacillus licheniformis α-amylase mutant 2D5 (H133Y, T149I) (Bacillus licheniformis; H162Y/T178I) (protein)
chain: B1 chain with H133Y, T149I
notes: as for B1
- Km [2]: 119 µM
- Vmax [2]: 66.3 ± 0.7 µmol/min/mg
